Like-named read-outs stand apart in the source and are kept apart here.
How the values were obtained:
[1] = biological target: T1, aerolysin pore (activated aerolysin in a planar lipid bilayer) (UniProt P09167 24-445); experiment: single-channel nanopore current recording
[2] = biological target: T1, aerolysin pore (activated aerolysin in …); experiment: single-channel nanopore current recording; remark: listed apart in the source

T1 sequence (P09167 24-445): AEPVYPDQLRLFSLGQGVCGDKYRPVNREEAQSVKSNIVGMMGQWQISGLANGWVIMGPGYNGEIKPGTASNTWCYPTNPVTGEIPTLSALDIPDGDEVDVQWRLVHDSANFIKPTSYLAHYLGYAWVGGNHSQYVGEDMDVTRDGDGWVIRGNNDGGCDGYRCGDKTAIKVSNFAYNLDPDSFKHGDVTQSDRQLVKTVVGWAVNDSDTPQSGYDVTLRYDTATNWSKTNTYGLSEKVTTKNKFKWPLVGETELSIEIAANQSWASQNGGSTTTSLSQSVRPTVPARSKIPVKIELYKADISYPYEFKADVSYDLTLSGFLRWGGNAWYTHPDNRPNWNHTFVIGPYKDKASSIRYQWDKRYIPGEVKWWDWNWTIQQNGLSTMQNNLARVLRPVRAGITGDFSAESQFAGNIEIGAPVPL

QFETSAAKLKRKYWWKNL [synthetic peptide Sb2(76-93)s]
kon [1]: 8.1e+07 M⁻¹ s⁻¹
kon [2]: 8.7e+06 M⁻¹ s⁻¹

Reference: paper PMC4296922 (ACS Applied Materials & Interfaces, 2014)
